For this series, the target named is C/EBPα WT (ivt) (human, UniProt P49715 1-358). As to the kind of experiment: EMSA; supershift by C/EBPα antibody; 10 mM HEPES-KOH pH 7.9, 50 mM KCl, 2.5 mM MgCl2, 1 mM DTT, 10% glycerol, 1 ug BSA, 0.5 ug poly(dI-dC), 25 ul, on ice 20 min; 6% gel, 0.5x TBE, 4 °C. On the technique in general: In EMSA bound probe runs differently from free probe, usually more slowly.
Sequence of C/EBPα WT (ivt) (P49715 whole entry): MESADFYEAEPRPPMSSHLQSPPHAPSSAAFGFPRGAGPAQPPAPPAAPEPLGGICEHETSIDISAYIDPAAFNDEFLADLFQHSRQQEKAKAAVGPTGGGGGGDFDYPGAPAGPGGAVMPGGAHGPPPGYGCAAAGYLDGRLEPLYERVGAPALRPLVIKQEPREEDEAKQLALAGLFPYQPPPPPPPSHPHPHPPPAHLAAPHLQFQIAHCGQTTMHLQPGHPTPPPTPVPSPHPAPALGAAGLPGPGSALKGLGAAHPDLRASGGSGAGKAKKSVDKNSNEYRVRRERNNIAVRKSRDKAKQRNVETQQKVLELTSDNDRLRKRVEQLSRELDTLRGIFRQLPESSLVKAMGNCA

B1: G-CSF receptor promoter C/EBP site oligonucleotide (dsDNA)
DNA 1: CTAGGGCTTGCGCAATCTATATTCG
DNA 2: CGAATATAGATTGCGCAAGCCCTA
Consider B1, for which the binding result was “binds”.

Values taken from article PMC4814574.
